Assay [1] has as its target T1, cow serum albumin (cow, UniProt P02769 25-607).
T1 construct: Bought protein, immobilized on a CM5 chip by amine coupling; also called Cow SA
Kind of assay: SPR (Biacore 8K), albumin immobilized on CM5 chip, 25 C, steady state.

Assay [2] has as its target T2, pig serum albumin (pig, UniProt P08835 25-607).
T2 construct: Bought protein, immobilized on a CM5 chip by amine coupling; also called Pig SA
Kind of assay: SPR (Biacore 8K), albumin immobilized on CM5 chip, 25 C, 1:1 kinetic fit. On the procedure:
(§1) The immobilization of the serum albumin to a Series S Sensor Chip CM5 surface is performed according to the manufacturer's instructions (Amine Coupling Kit BR-1000-50). Briefly, carboxyl groups on the sensor chip surfaces (flow cell 1 and 2) are activated by injecting 70 μL of a mixture containing 75 mg/mL EDC and 11.5 mg/mL NHS at 10 μL/min. Human, cynomolgus monkey, mouse, rat, pig, dog, cow and rabbit serum albumin are diluted in 10 mM sodium acetate pH 4.0 (BR-1003-49) at […] and then injected over the activated chip surfaces (flow cell 2, channel 1 to 8) at 10 μL/min for 180 sec (human, mouse, rat, pig and cow serum albumin are obtained from Sigma Aldrich (St. Louis, MO); cynomolgus monkey serum albumin is obtained from Hölzel Diagnostika (Cologne, Germany); dog serum albumin is obtained from Molecular Innovations (Novi, MI); and rabbit serum albumin is obtained from Fitzgerald Industries Intl. (Acton, MA). The various serum albumins are covalently immobilized through free amines onto a carboxymethyl dextran-coated sensor chip CM5 targeting a surface density of about 100 (62-145) RU. Excess reactive groups on the surfaces (flow cell 1 and 2) are deactivated by injecting 70 μL of 1 M ETA HCl—NaOH pH 8.5.
(§2) 150 μl of sample is individually injecting sequentially across the immobilized serum albumins on the chip's surface and dissociating for 600 sec at 50 μL/min flow rate at 25° C. The surface is regenerated by injecting 10 mM glycine-HCl pH 1.5 (BR-1003-54) at 50 μL/min for 100 sec. The resulting sensorgrams are analyzed using Biacore 8K Insight Evaluation Software (version 2.0.15.12933) 1:1 binding kinetics model fitting to calculate the binding kinetic parameter association rate (ka), dissociation rate (kd), and equilibrium dissociation constant (KD).
(In general: SPR reads the build-up and loss of mass on a sensor chip optically.)

Assay [3] addresses T3, mouse serum albumin (mouse, UniProt P07724 25-608).
T3 construct: Bought protein, immobilized on a CM5 chip by amine coupling; also called Mouse SA
Described as above. As for the experimental part: as §1, §2

In assay [4] the target is T4, dog serum albumin (dog, UniProt P49822 25-608).
T4 construct: Bought protein, immobilized on a CM5 chip by amine coupling; also called Dog SA
Described as above. As for the experimental part: as §1, §2

The target in assay [5] is T5, cynomolgus monkey serum albumin (cynomolgus monkey, UniProt A2V9Z4 25-608).
T5 construct: Bought protein, immobilized on a CM5 chip by amine coupling; also called Cyno SA
Described as above. On the procedure:
as §1, §2

Assay [6] deals with T6, human serum albumin (human, UniProt P02768 25-609).
T6 construct: Bought protein, immobilized on a CM5 chip by amine coupling; also called Human SA
The assay is described as above. As for the experimental part:
as §1, §2

The target of assay [7] is T7, rat serum albumin (rat, UniProt P02770 25-608).
T7 construct: Bought protein, immobilized on a CM5 chip by amine coupling; also called Rat SA
The assay is described as above. On the procedure: as §1, §2

For assay [8], the target named is T8, rabbit serum albumin (rabbit, UniProt P49065 25-608).
T8 construct: Bought protein, immobilized on a CM5 chip by amine coupling; also called Rabbit SA
Briefly: SPR (Biacore 8K), albumin immobilized on CM5 chip, 25 C. On the procedure:
as §1, §2

Assay [9] has as its target human RXFP2 receptor (human, UniProt Q8WXD0 1-754). Kind of assay: cell-based or functional assay.
The target of assay [10] is T9, human RXFP1 receptor (human, UniProt Q9HBX9 1-757).
T9 sequence: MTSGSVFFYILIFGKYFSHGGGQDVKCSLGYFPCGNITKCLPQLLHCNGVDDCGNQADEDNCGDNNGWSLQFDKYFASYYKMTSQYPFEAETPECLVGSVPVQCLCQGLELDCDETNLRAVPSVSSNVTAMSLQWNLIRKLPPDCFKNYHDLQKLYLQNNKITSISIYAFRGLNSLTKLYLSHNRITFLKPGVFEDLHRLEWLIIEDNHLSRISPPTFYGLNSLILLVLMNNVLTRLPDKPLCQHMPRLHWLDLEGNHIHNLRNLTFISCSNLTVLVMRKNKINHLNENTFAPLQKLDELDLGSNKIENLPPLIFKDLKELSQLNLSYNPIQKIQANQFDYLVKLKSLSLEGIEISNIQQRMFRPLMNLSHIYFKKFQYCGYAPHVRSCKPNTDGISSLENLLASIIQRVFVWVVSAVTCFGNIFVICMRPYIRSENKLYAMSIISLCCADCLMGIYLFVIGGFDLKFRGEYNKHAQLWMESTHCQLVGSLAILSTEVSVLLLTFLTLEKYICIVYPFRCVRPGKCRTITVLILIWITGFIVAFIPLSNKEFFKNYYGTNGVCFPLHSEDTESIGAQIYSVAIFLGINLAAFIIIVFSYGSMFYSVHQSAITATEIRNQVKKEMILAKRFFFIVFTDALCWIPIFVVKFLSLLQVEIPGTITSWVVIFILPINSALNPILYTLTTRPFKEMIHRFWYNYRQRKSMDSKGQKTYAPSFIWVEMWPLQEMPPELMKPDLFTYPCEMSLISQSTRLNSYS
Briefly: cell-based or functional assay.

The target in assay [11] is T1, cow serum albumin. Kind of assay: SPR (Biacore 8K), albumin immobilized on CM5 chip, 25 C, steady state. As for the experimental part: as §1
150 μl of sample is individually injecting sequentially across the immobilized serum albumins on the chip's surface and dissociating for 600 sec at 50 μL/min flow rate at 25° C. The surface is regenerated by injecting 10 mM glycine-HCl pH 1.5 (BR-1003-54) at 50 μL/min for 100 sec. The resulting sensorgrams are analyzed using Biacore 8K Insight Evaluation Software ([…]).
This is another data set of the same source.

Like-named read-outs stand apart in the source and are kept apart here.

B1: RLN Analog 13 (other)
chain: EVQLLESGGGLVQPGGSLRLSCAASGRYIDETAVAWFRQAPGKGREFVAGIGGGVDITYYADSVKGRFTISRDNSKNTLYLQMNSLRPEDTAVYYCAARPGRPLITSKVADLYPYWGQGTLVTVSSGGGGQGGGGQGGGGQGGGGQGGGGQALANKCCHVGCTKRSLARFCGGGSGGSGGGSWMEEVIKLCGRELVRAQIAICGMSTWS
notes: Single-chain fusion: VHH - (G4Q)5 L1 - RLN2 A chain (desA1-4) - L2 - RLN2 B chain (desB1)
On to B1, for which the Kd turned out to be 29 nM in assay [1]; 5 nM in [2]; 2.6 nM in assay [3]; 0.92 nM in [4]; 0.49 nM in assay [5]; 0.14 nM in [6]. This molecule also registered a Kd in assay [7] of 2 nM. Besides, the koff amounted to 0.006 s⁻¹ in assay [2]; 0.0048 s⁻¹ in [3]; 0.0017 s⁻¹ in [4]; 0.0007 s⁻¹ in assay [5]; 0.00019 s⁻¹ in assay [6]; 0.0033 s⁻¹ in assay [7]. The kon is 1.2e+06 M⁻¹ s⁻¹ in assay [2]; 1.8e+06 M⁻¹ s⁻¹ in assay [3]; 1.9e+06 M⁻¹ s⁻¹ in [4]; 1.4e+06 M⁻¹ s⁻¹ in [5]; 1.4e+06 M⁻¹ s⁻¹ in assay [6]; 1.7e+06 M⁻¹ s⁻¹ in assay [7]. Further, the binding result in assay [8] is given as “no binding (tested: 1000 nM (highest concentration tested))”.

B2: RLN Analog 6 (other)
chain: SWMEEVIKLCGRELVRAQIAICGMSTWSGGGSGGSGGGQLYSALANKCCHVGCTKRSLARFCPGPQPGPQPGPQPGPQPGPQPGPQPGPQPGPQEVQLLESGGGLVQPGGSLRLSCAASGRYIDETAVAWFRQAPGKEREFVAGIGGGVDITYYADSVKGRFTISRDNSKNTLYLQMNSLRPEDTAVYYCAARPGRPLITSKVADLYPYWGQGTLVTVSSPP
notes: Single-chain fusion: RLN2 B chain (desB1) - L2 - RLN2 A chain - PGPQ-repeat L1 - VHH (C-terminal)
B2: in [9], the “hRXFP2 EC50 nM GeoMean (cAMP CRE luciferase reporter assay, CHO cells expressing human RXFP2)” value (from here on “hRXFP2 EC50 nM GeoMean”) was 39 nM. In assay [10], the “hRXFP1 EC50 nM GeoMean (cAMP CRE luciferase reporter assay, CHO cells expressing human RXFP1)” value (“hRXFP1 EC50 nM GeoMean” for short) amounted to 15 nM. Further, the Kd was determined as 24 nM in assay [2]; 12 nM in assay [3]; 4.1 nM in assay [4]; 2.3 nM in assay [5]; 0.51 nM in assay [6]; 9.7 nM in [7]. For the same molecule, the Kd in assay [11] stood at 130 nM. The koff in [2] came out at 0.0099 s⁻¹; in assay [3] it was 0.0076 s⁻¹; in assay [4] it was 0.002 s⁻¹; in assay [5] it was 0.001 s⁻¹; in assay [6] it was 0.00024 s⁻¹; in assay [7], 0.0048 s⁻¹. The kon in [2] is 410000 M⁻¹ s⁻¹; in [3] it was 630000 M⁻¹ s⁻¹; in assay [4], 480000 M⁻¹ s⁻¹; in [5], 430000 M⁻¹ s⁻¹; in [6], 470000 M⁻¹ s⁻¹; in assay [7] it was 490000 M⁻¹ s⁻¹. In [8], the binding result is listed as “no binding (tested: 1000 nM (highest concentration tested))”.

B3: RLN Analog 10 (other)
chain: SWMEEVIKLCGRELVRAQIAICGMSTWSGGGSGGSGGGQLYSALANKCCHVGCTKRSLARFCPGPQPGPQPGPQPGPQPGPQPGPQPGPQPGPQEVQLLESGGGLVQPGGSLRLSCAASGRYIDETAVAWFRQAPGKGREFVAGIGGGVDITYYADSVKGRFTISRDNSKNTLYLQMNSLRPEDTAVYYCAARPGRPLITSKVADLYPYWGQGTLVTVSSPP
notes: Single-chain fusion: RLN2 B chain (desB1) - L2 - RLN2 A chain - (PGPQ)8 L1 - VHH (C-terminal)
Take B3: the “hRXFP2 EC50 nM GeoMean” value in assay [9] is 32 nM. The “hRXFP1 EC50 nM GeoMean” value in assay [10] is 14 nM. For the same molecule, the Kd was found to be 20 nM in [2]; 9.7 nM in assay [3]; 3.4 nM in assay [4]; 1.5 nM in assay [5]; 0.37 nM in [6]; 7.8 nM in assay [7]. Besides, in assay [11], the Kd amounted to 100 nM. The koff in [2] is 0.0096 s⁻¹; in [3], 0.0072 s⁻¹; in assay [4] it was 0.0021 s⁻¹; in assay [5], 0.00077 s⁻¹; in assay [6], 0.0002 s⁻¹; in assay [7] it was 0.0049 s⁻¹. For the same molecule, the on-rate constant (kon) was 490000 M⁻¹ s⁻¹ in assay [2]; 740000 M⁻¹ s⁻¹ in assay [3]; 630000 M⁻¹ s⁻¹ in assay [4]; 510000 M⁻¹ s⁻¹ in [5]; 550000 M⁻¹ s⁻¹ in assay [6]; 630000 M⁻¹ s⁻¹ in assay [7]. The binding result in assay [8] is recorded as “no binding (tested: 1000 nM (highest concentration tested))”.

B4: RLN Analog 9 (other)
chain: SWMEEVIKLCGRELVRAQIAICGMSTWSGGGSGGSGGGQLYSALANKCCHVGCTKRSLARFCGGGGQGGGGQGGGGQGGGGQGGGGQEVQLLESGGGLVQPGGSLRLSCAASGRYIDETAVAWFRQAPGKGREFVAGIGGGVDITYYADSVKGRFTISRDNSKNTLYLQMNSLRPEDTAVYYCAARPGRPLITSKVADLYPYWGQGTLVTVSSPP
notes: Single-chain fusion: RLN2 B chain (desB1) - L2 - RLN2 A chain - (G4Q)5 L1 - VHH (C-terminal)
In the case of B4, the “hRXFP2 EC50 nM GeoMean” value in assay [9] was determined as 97 nM. In addition, in assay [10], the “hRXFP1 EC50 nM GeoMean” value is 5.2 nM. Also, the Kd amounted to 14 nM in assay [2]; 9.5 nM in assay [3]; 3.8 nM in [4]; 0.86 nM in [5]; 0.19 nM in assay [6]; 8.2 nM in assay [7]. Also, in assay [11], the Kd amounted to 84 nM. Moreover, the koff in assay [2] amounted to 0.012 s⁻¹; in [3], 0.011 s⁻¹; in assay [4], 0.0036 s⁻¹; in assay [5] it was 0.00094 s⁻¹; in assay [6], 0.00018 s⁻¹; in assay [7], 0.0075 s⁻¹. Also, the kon in [2] stood at 870000 M⁻¹ s⁻¹; in [3], 1.2e+06 M⁻¹ s⁻¹; in assay [4], 950000 M⁻¹ s⁻¹; in assay [5] it was 1.1e+06 M⁻¹ s⁻¹; in [6], 950000 M⁻¹ s⁻¹; in assay [7], 910000 M⁻¹ s⁻¹. Also, the binding result in assay [8] is “no binding (tested: 1000 nM (highest concentration tested))”.

Usually Kd stands for a measure of binding affinity in units of concentration. Usually koff stands for the rate constant with which the complex falls apart. In general, kon refers to the rate constant with which the complex forms.

For the origin of these results see patent US20260125446A1 (Eli Lilly, published 2026).
